# Measured values taken from the supplement of paper PMC5998384.
# Legend:
# [1] = test system: HeLa Kyoto; test: melting temperature (median over replicates), in situ; higher = more thermally stable
# [2] = test system: HeLa Kyoto; test: solubility in G1/S (NP-40 vs SDS abundance) (log2 ratio); higher = more soluble; settings: cell cycle stage: G1/S
# [3] = test system: HeLa Kyoto; test: thermal stability score vs G1/S (z-score of summed log2 fold changes over temperatures); higher = more thermally stable than in G1/S
# [4] = test system: HeLa Kyoto; test: solubility change mitosis vs G1/S (difference of NP-40 vs SDS log2 ratios) (log2 ratio difference); higher = more soluble in mitosis
# [5] = cell cycle stage: early G1 (4.5 h after nocodazole release)
# 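Wherever melting temperature (median over replicates), in situ is given: HeLa Kyoto cells synchronized by double thymidine or nocodazole block, proteins quantified by TMT10plex mass spectrometry, three independent biological replicates.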
# 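Wherever solubility change mitosis vs G1/S (difference of NP-40 vs SDS log2 ratios) is given: synchronized HeLa Kyoto cells (double thymidine block for G1/S, nocodazole release for mitosis), protein amounts in NP-40 versus SDS lysates quantified by mass spectrometry, three biological replicates.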
# 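Wherever solubility in G1/S (NP-40 vs SDS abundance) is given: HeLa Kyoto cells arrested at G1/S by double thymidine block, proteins quantified by TMT10plex mass spectrometry in mild NP-40 versus SDS extracts, three biological replicates.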
# 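Wherever thermal stability score vs G1/S (z-score of summed log2 fold changes over temperatures) is given: synchronized HeLa Kyoto cells, proteins quantified by TMT10plex mass spectrometry, three biological replicates, mitosis taken 0.5 h after nocodazole release, G1/S directly after double thymidine block.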
# STK26, sequence (chain, as listed by the source): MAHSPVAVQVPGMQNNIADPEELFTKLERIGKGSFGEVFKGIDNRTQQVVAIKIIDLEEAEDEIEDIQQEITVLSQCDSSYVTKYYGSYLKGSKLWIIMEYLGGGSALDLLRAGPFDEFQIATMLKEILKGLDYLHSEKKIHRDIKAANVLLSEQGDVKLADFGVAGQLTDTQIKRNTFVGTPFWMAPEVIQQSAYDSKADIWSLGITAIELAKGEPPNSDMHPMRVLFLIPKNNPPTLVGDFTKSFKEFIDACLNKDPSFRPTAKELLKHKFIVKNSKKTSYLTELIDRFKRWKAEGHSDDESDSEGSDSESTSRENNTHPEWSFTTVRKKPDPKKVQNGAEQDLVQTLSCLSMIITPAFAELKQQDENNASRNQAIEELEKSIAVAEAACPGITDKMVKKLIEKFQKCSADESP
Substance,melting temperature ([1]; cell cycle stage: mitosis),solubility in G1/S (log2) [2],"thermal stability score [3, 5]",thermal stability score ([3]; cell cycle stage: mitosis),solubility change mitosis (log2) [4],melting temperature ([1]; cell cycle stage: G1/S)
MQWLRVRESPGEATGHRVTMGTAALGPVWAALLLFLLMCEIPMVELTFDRAVASGCQRCCDSEDPLDPAHVSSASSSGRPHALPEIRPYINITILKGDKGDPGPMGLPGYMGREGPQGEPGPQGSKGDKGEMGSPGAPCQKRFFAFSVGRKTALHSGEDFQTLLFERVFVNLDGCFDMATGQFAAPLRGIYFFSLNVHSWNYKETYVHIMHNQKEAVILYAQPSERSIMQSQSVMLDLAYGDRVWVRLFKRQRENAIYSNDFDTYITFSGHLIKAEDD [C1QTNF6],55 °C,0.0492,0.27,-0.884,-0.235,–
MFKVIQRSVGPASLSLLTFKVYAAPKKDSPPKNSVKVDELSLYSVPEGQSKYVEEARSQLEESISQLRHYCEPYTTWCQETYSQTKPKMQSLVQWGLDSYDYLQNAPPGFFPRLGVIGFAGLIGLLLARGSKIKKLVYPPGFMGLAASLYYPQQAIVFAQVSGERLYDWGLRGYIVIEDLWKENFQKPGNVKNSPGTK [APOO],56 °C,0.444,-1.86,-2.5,0.185,54.8 °C
STK26,49.8 °C,0.393,1.96,2.98,-0.0994,49.1 °C
MPLLFLERFPWPSLRTYTGLSGLALLGTIISAYRALSQPEAGPGEPDQLTASLQPEPPAPARPSAGGPRARDVAQYLLSDSLFVWVLVNTACCVLMLVAKLIQCIVFGPLRVSERQHLKDKFWNFIFYKFIFIFGVLNVQTVEEVVMWCLWFAGLVFLHLMVQLCKDRFEYLSFSPTTPMSSHGRVLSLLVAMLLSCCGLAAVCSITGYTHGMHTLAFMAAESLLVTVRTAHVILRYVIHLWDLNHEGTWEGKGTYVYYTDFVMELTLLSLDLMHHIHMLLFGNIWLSMASLVIFMQLRYLFHEVQRRIRRHKNYLRVVGNMEARFAVATPEELAVNNDDCAICWDSMQAARKLPCGHLFHNSCLRSWLEQDTSCPTCRMSLNIADNNRVREEHQGENLDENLVPVAAAEGRPRLNQHNHFFHFDGSRIASWLPSFSVEVMHTTNILGITQASNSQLNAMAHQIQEMFPQVPYHLVLQDLQLTRSVEITTDNILEGRIQVPFPTQRSDSIRPALNSPVERPSSDQEEGETSAQTERVPLDLSPRLEETLDFGEVEVEPSEVEDFEARGSRFSKSADERQRMLVQRKDELLQQARKRFLNKSSEDDAASESFLPSEGASSDPVTLRRRMLAAAAERRLQKQQTS [AMFR],51.3 °C,-0.387,0.15,-0.174,-0.081,51.3 °C
MAEAHQAVAFQFTVTPDGIDLRLSHEALRQIYLSGLHSWKKKFIRFKNGIITGVYPASPSSWLIVVVGVMTTMYAKIDPSLGIIAKINRTLETANCMSSQTKNVVSGVLFGTGLWVALIVTMRYSLKVLLSYHGWMFTEHGKMSRATKIWMGMVKIFSGRKPMLYSFQTSLPRLPVPAVKDTVNRYLQSVRPLMKEEDFKRMTALAQDFAVGLGPRLQWYLKLKSWWATNYVSDWWEEYIYLRGRGPLMVNSNYYAMDLLYILPTHIQAARAGNAIHAILLYRRKLDREEIKPIRLLGSTIPLCSAQWERMFNTSRIPGEETDTIQHMRDSKHIVVYHRGRYFKVWLYHDGRLLKPREMEQQMQRILDNTSEPQPGEARLAALTAGDRVPWARCRQAYFGRGKNKQSLDAVEKAAFFVTLDETEEGYRSEDPDTSMDSYAKSLLHGRCYDRWFDKSFTFVVFKNGKMGLNAEHSWADAPIVAHLWEYVMSIDSLQLGYAEDGHCKGDINPNIPYPTRLQWDIPGECQEVIETSLNTANLLANDVDFHSFPFVAFGKGIIKKCRTSPDAFVQLALQLAHYKDMGKFCLTYEASMTRLFREGRTETVRSCTTESCDFVRAMVDPAQTVEQRLKLFKLASEKHQHMYRLAMTGSGIDRHLFCLYVVSKYLAVESPFLKEVLSEPWRLSTSQTPQQQVELFDLENNPEYVSSGGGFGPVADDGYGVSYILVGENLINFHISSKFSCPETDSHRFGRHLKEAMTDIITLFGLSSNSKK [CPT1A],50.1 °C,-0.177,5.3,4.57,-0.0899,50 °C
MON2,50.1 °C,-0.103,-0.177,0.256,-0.108,49.8 °C
MAKQKRKVPEVTEKKNKKLKKASAEGPLLGPEAAPSGEGAGSKGEAVLRPGLDAEPELSPEEQRVLERKLKKERKKEERQRLREAGLVAQHPPARRSGAELALDYLCRWAQKHKNWRFQKTRQTWLLLHMYDSDKVPDEHFSTLLAYLEGLQGRARELTVQKAEALMRELDEEGSDPPLPGRAQRIRQVLQLLS [C7ORF50],53.5 °C,-0.289,0.0776,0.494,0.57,50 °C
MVLLESEQFLTELTRLFQKCRTSGSVYITLKKYDGRTKPIPKKGTVEGFEPADNKCLLRATDGKKKISTVVSSKEVNKFQMAYSNLLRANMDGLKKRDKKNKTKKTKAAAAAAAAAPAAAATAPTTAATTAATAAQ [SRP14],52.6 °C,0.1,-2.96,-4.66,0.409,53.6 °C
